Experimental data as given in US20100021390A1, “Fluorescent Analogs Of The Islet Amyloid Polypeptide” (The Research Foundation of State University of New York, priority 2008, published 2010).

Key:
[1] = Control fluorescence of small p-cyanophenylalanine peptide in solvents and buffer; type: physicochemical
Source text: In vitro assays of amyloid formation often involve solubilizing the peptide of interest in a fluorinated alcohol, typically hexafluoroisopropanol (HFIP). The fibrillization reaction is initiated by diluting the stock solution into aqueous buffer. […] A small, soluble p-cyanophenylalanine containing peptide (Gly-PheC≡N-Ala-Ala) was synthesized for the control studies. […] The fluorescence intensity was reduced by approximately 30%.

[2] = Thioflavin-T fluorescence kinetic assay of amyloid (fibril) formation by the peptides; type: physicochemical; details: 32 μM peptide, 20 mM Tris-HCl, 2% HFIP
Source text: (§1) Wild-type IAPP, IAPP-Y37FC≡N and a G-FCN-A-A tetrapeptide were synthesized and the disulfide bond in IAPP was formed using dimethyl sulfoxide (DMSO) based oxidation as described in Abedini et al., Analytical Biochemistry 351, 181-186 (2006) incorporated herein by reference. The synthesis of peptides is well known in the art. Synthesizers such as the Applied Biosystems 433A are commercially available with ample instructions for use and are generally accessible to practitioners in the art. Fmoc-4-cyanoPhe was obtained from NovaBiochem. Peptides were purified via reverse phase HPLC and the identities confirmed by MALDI mass spectroscopy. Thioflavin-T fluorescence experiments were performed with a Jobin Yvon Horiba fluorescence spectrophotometer or with an Applied Phototechnology fluorescence spectrophotometer. P-cyanoPhe fluorescence was excited at 240 nm and detected at 296 nm with instrument slit widths of 10 nm on an Applied Photon Technologies fluorimeter. […]
(§2) Fibrillization reactions were initiated by diluting the stock 50-fold into buffered (20 mM Tris-HCl, pH 7.4) aqueous solution. […] The spectrum is the average of three repeats in a 0.1 cm quartz cuvette and recorded over a range of 190-250 nm, at 1 nm intervals, with an averaging time of three seconds per scan. […]

[3] = p-Cyanophenylalanine fluorescence kinetic assay of amyloid formation by the peptides; type: physicochemical; details: 32 μM peptide, 20 mM Tris-HCl, 2% HFIP
Source text: as §1, §2

hIAPP-Y37FC≡N = target: T1, hIAPP-Y37FC≡N (Homo sapiens, UniProt P10997); experiment: p-Cyanophenylalanine fluorescence-detected kinetics of hIAPP-Y37FC≡N amyloid formation in presence and absence of rifampicin; type: biochemical; details: no rifampicin, 32 μM peptide
T1 construct: hIAPP is 37 residues in length, contains a disulfide bond linking residues 2 and 7 and has an amidated C-terminus; made in house; host or cells: chemical synthesis (Fmoc solid phase; Fmoc-4-cyanoPhe from NovaBiochem)
T1 sequence (P10997 with tags, fused parts or gaps): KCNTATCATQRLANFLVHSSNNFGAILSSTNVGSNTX
Description: Thioflavin-T Fluorescence. All fluorescence experiments were performed with a Jobin Yvon Horiba fluorescence spectrophotometer or with an Applied Phototechnology Fluorescence Spectrophotometer. An excitation wavelength of 450 nm and emission wavelength of 485 nm was used for the thioflavin-T studies. The excitation and emission slits were set at 5 nm. A 1.0 cm cuvette was used and each point was averaged for 1 minute. All solutions for these studies were prepared by diluting filtered stock solution (0.45 μm filter) into a Tris-HCl buffer (pH 7.4) and thioflavin-T solution immediately before the measurement. The final concentration was 32 μM peptide and 25 μM thioflavin-T with or without rifampicin in 2% HFIP for all experiments. The final concentration of ascorbic acid used in antioxidant experiments was 83 μM. All solutions were stirred during the fluorescence experiments. P-cyanophenylalanine fluorescence was excited at 240 nm and detected at 296 nm, with both excitation and emission slits of 10 nm.

[4] = target: the molecule itself; experiment: cell-based or functional assay

Gly-PheC≡N-Ala-Ala
reduction of fluorescence intensity ([1]; 20 mM Tris-HCl): approximately 30% | fluorescence intensity in water vs 2% HFIP ([1]; water, 2% HFIP, very similar in 100% HFIP): the same

KCNTATCATQRLANFLVHSSNNFGAILSSTNVGSNTFC≡N (HELM PEPTIDE1{K.C.N.T.A.T.C.A.T.Q.R.L.A.N.F.L.V.H.S.S.N.N.F.G.A.I.L.S.S.T.N.V.G.S.N.T.[N#Cc1ccc(C[C@H](N[*:1])C(=O)[*:2])cc1].[am]}$PEPTIDE1,PEPTIDE1,2:R3-7:R3$$$V2.0; N-terminus assumed; SMILES CC[C@H](C)[C@H](NC(=O)[C@H](C)NC(=O)CNC(=O)[C@H](Cc1ccccc1)NC(=O)[C@H](CC(N)=O)NC(=O)[C@H](CC(N)=O)NC(=O)[C@H](CO)NC(=O)[C@H](CO)NC(=O)[C@H](Cc1c[nH]cn1)NC(=O)[C@@H](NC(=O)[C@H](CC(C)C)NC(=O)[C@H](Cc1ccccc1)NC(=O)[C@H](CC(N)=O)NC(=O)[C@H](C)NC(=O)[C@H](CC(C)C)NC(=O)[C@H](CCCNC(=N)N)NC(=O)[C@H](CCC(N)=O)NC(=O)[C@@H](NC(=O)[C@H](C)NC(=O)[C@@H]1CSSC[C@H](NC(=O)[C@@H](N)CCCCN)C(=O)N[C@@H](CC(N)=O)C(=O)N[C@@H]([C@@H](C)O)C(=O)N[C@@H](C)C(=O)N[C@@H]([C@@H](C)O)C(=O)N1)[C@@H](C)O)C(C)C)C(=O)N[C@@H](CC(C)C)C(=O)N[C@@H](CO)C(=O)N[C@@H](CO)C(=O)N[C@H](C(=O)N[C@@H](CC(N)=O)C(=O)N[C@H](C(=O)NCC(=O)N[C@@H](CO)C(=O)N[C@@H](CC(N)=O)C(=O)N[C@H](C(=O)N[C@@H](Cc1ccc(C#N)cc1)C(N)=O)[C@@H](C)O)C(C)C)[C@@H](C)O) [hIAPP-Y37FC≡N, human IAPP with Tyr-37 replaced with p-cyanoPhe]
time of the growth period (20 to 80% completion) by thioflavin-T fluorescence ([2]; pH 7.4): 247 ± 12 s | midpoint (t50) of amyloid formation as determined by thioflavin-T fluorescence ([2]; pH 7.4, 25° C.): 1,130±100 s | time of the growth period (20 to 80% completion) by p-cyanophenylalanine fluorescence ([3]; pH 7.4): 248 ± 12 s | midpoint (t50) of amyloid formation as determined by p-cyanophenylalanine fluorescence ([3]; pH 7.4, 25° C.): 1,100±100 s | growth phase (10% to 80% completion) in absence of the drug (hIAPP-Y37FC≡N): 6 min | t50 time when rifampicin is absent (hIAPP-Y37FC≡N; 2% HFIP, 25° C., pH 7.4): 18 min

B1: hIAPP-Y37FC≡N (peptide)
peptide: KCNTATCATQRLANFLVHSSNNFGAILSSTNVGSNTF
HELM: PEPTIDE1{K.C.N.T.A.T.C.A.T.Q.R.L.A.N.F.L.V.H.S.S.N.N.F.G.A.I.L.S.S.T.N.V.G.S.N.T.[N#Cc1ccc(C[C@H](N[*:1])C(=O)[*:2])cc1].[am]}$PEPTIDE1,PEPTIDE1,2:R3-7:R3$$$V2.0; N-terminus assumed
SMILES: CC[C@H](C)[C@H](NC(=O)[C@H](C)NC(=O)CNC(=O)[C@H](Cc1ccccc1)NC(=O)[C@H](CC(N)=O)NC(=O)[C@H](CC(N)=O)NC(=O)[C@H](CO)NC(=O)[C@H](CO)NC(=O)[C@H](Cc1c[nH]cn1)NC(=O)[C@@H](NC(=O)[C@H](CC(C)C)NC(=O)[C@H](Cc1ccccc1)NC(=O)[C@H](CC(N)=O)NC(=O)[C@H](C)NC(=O)[C@H](CC(C)C)NC(=O)[C@H](CCCNC(=N)N)NC(=O)[C@H](CCC(N)=O)NC(=O)[C@@H](NC(=O)[C@H](C)NC(=O)[C@@H]1CSSC[C@H](NC(=O)[C@@H](N)CCCCN)C(=O)N[C@@H](CC(N)=O)C(=O)N[C@@H]([C@@H](C)O)C(=O)N[C@@H](C)C(=O)N[C@@H]([C@@H](C)O)C(=O)N1)[C@@H](C)O)C(C)C)C(=O)N[C@@H](CC(C)C)C(=O)N[C@@H](CO)C(=O)N[C@@H](CO)C(=O)N[C@H](C(=O)N[C@@H](CC(N)=O)C(=O)N[C@H](C(=O)NCC(=O)N[C@@H](CO)C(=O)N[C@@H](CC(N)=O)C(=O)N[C@H](C(=O)N[C@@H](Cc1ccc(C#N)cc1)C(N)=O)[C@@H](C)O)C(C)C)[C@@H](C)O
midpoint (t50) of amyloid formation, p-cyanophenylalanine fluorescence [4]: 1100 s | midpoint (t50) of amyloid formation, thioflavin-T fluorescence [4]: 1130 s

B2: hIAPP-F23FC≡N (peptide)
peptide: KCNTATCATQRLANFLVHSSNNFGAILSSTNVGSNTY
HELM: PEPTIDE1{K.C.N.T.A.T.C.A.T.Q.R.L.A.N.F.L.V.H.S.S.N.N.[N#Cc1ccc(C[C@H](N[*:1])C(=O)[*:2])cc1].G.A.I.L.S.S.T.N.V.G.S.N.T.Y.[am]}$PEPTIDE1,PEPTIDE1,2:R3-7:R3$$$V2.0; N-terminus assumed
SMILES: CC[C@H](C)[C@H](NC(=O)[C@H](C)NC(=O)CNC(=O)[C@H](Cc1ccc(C#N)cc1)NC(=O)[C@H](CC(N)=O)NC(=O)[C@H](CC(N)=O)NC(=O)[C@H](CO)NC(=O)[C@H](CO)NC(=O)[C@H](Cc1c[nH]cn1)NC(=O)[C@@H](NC(=O)[C@H](CC(C)C)NC(=O)[C@H](Cc1ccccc1)NC(=O)[C@H](CC(N)=O)NC(=O)[C@H](C)NC(=O)[C@H](CC(C)C)NC(=O)[C@H](CCCNC(=N)N)NC(=O)[C@H](CCC(N)=O)NC(=O)[C@@H](NC(=O)[C@H](C)NC(=O)[C@@H]1CSSC[C@H](NC(=O)[C@@H](N)CCCCN)C(=O)N[C@@H](CC(N)=O)C(=O)N[C@@H]([C@@H](C)O)C(=O)N[C@@H](C)C(=O)N[C@@H]([C@@H](C)O)C(=O)N1)[C@@H](C)O)C(C)C)C(=O)N[C@@H](CC(C)C)C(=O)N[C@@H](CO)C(=O)N[C@@H](CO)C(=O)N[C@H](C(=O)N[C@@H](CC(N)=O)C(=O)N[C@H](C(=O)NCC(=O)N[C@@H](CO)C(=O)N[C@@H](CC(N)=O)C(=O)N[C@H](C(=O)N[C@@H](Cc1ccc(O)cc1)C(N)=O)[C@@H](C)O)C(C)C)[C@@H](C)O
midpoint (t50) of amyloid formation, p-cyanophenylalanine fluorescence [4]: 982 s | midpoint (t50) of amyloid formation, thioflavin-T fluorescence [4]: 972 s

B3: hIAPP-F15FC≡N (peptide)
peptide: KCNTATCATQRLANFLVHSSNNFGAILSSTNVGSNTY
HELM: PEPTIDE1{K.C.N.T.A.T.C.A.T.Q.R.L.A.N.[N#Cc1ccc(C[C@H](N[*:1])C(=O)[*:2])cc1].L.V.H.S.S.N.N.F.G.A.I.L.S.S.T.N.V.G.S.N.T.Y.[am]}$PEPTIDE1,PEPTIDE1,2:R3-7:R3$$$V2.0; N-terminus assumed
SMILES: CC[C@H](C)[C@H](NC(=O)[C@H](C)NC(=O)CNC(=O)[C@H](Cc1ccccc1)NC(=O)[C@H](CC(N)=O)NC(=O)[C@H](CC(N)=O)NC(=O)[C@H](CO)NC(=O)[C@H](CO)NC(=O)[C@H](Cc1c[nH]cn1)NC(=O)[C@@H](NC(=O)[C@H](CC(C)C)NC(=O)[C@H](Cc1ccc(C#N)cc1)NC(=O)[C@H](CC(N)=O)NC(=O)[C@H](C)NC(=O)[C@H](CC(C)C)NC(=O)[C@H](CCCNC(=N)N)NC(=O)[C@H](CCC(N)=O)NC(=O)[C@@H](NC(=O)[C@H](C)NC(=O)[C@@H]1CSSC[C@H](NC(=O)[C@@H](N)CCCCN)C(=O)N[C@@H](CC(N)=O)C(=O)N[C@@H]([C@@H](C)O)C(=O)N[C@@H](C)C(=O)N[C@@H]([C@@H](C)O)C(=O)N1)[C@@H](C)O)C(C)C)C(=O)N[C@@H](CC(C)C)C(=O)N[C@@H](CO)C(=O)N[C@@H](CO)C(=O)N[C@H](C(=O)N[C@@H](CC(N)=O)C(=O)N[C@H](C(=O)NCC(=O)N[C@@H](CO)C(=O)N[C@@H](CC(N)=O)C(=O)N[C@H](C(=O)N[C@@H](Cc1ccc(O)cc1)C(N)=O)[C@@H](C)O)C(C)C)[C@@H](C)O
midpoint (t50) of amyloid formation, p-cyanophenylalanine fluorescence [4]: 936 s | midpoint (t50) of amyloid formation, thioflavin-T fluorescence [4]: 913 s
